Numbering of substitutions follows the chain as printed.
T1: human CTLA-4 on transfected CHO-K1 cells (human, UniProt P16410 36-223)
T1 construct: whole, on cells; also called human CTLA4-transfected CHO cells; CTLA-4 expressing CHO cells
T1 sequence (looked up): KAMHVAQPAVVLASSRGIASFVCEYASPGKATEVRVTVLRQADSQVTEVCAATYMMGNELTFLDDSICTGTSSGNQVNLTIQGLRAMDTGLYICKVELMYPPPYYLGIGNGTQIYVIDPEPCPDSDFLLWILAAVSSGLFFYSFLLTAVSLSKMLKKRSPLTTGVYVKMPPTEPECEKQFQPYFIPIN

T2: human CTLA-4-Fc (Chimerigen) (human, UniProt P16410 36-161, limits assumed)
T2 construct: Bought fusion protein; also called hCTLA4-Fc; not shown: It was captured by an anti-human IgG-Fc antibody
T2 sequence (looked up): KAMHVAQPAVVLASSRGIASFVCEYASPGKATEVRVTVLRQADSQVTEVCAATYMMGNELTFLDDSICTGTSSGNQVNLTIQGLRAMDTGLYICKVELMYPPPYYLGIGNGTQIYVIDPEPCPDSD

B1: SEQ ID NO 14 (designed binder)
chain: MASMTGGQQMGQDSTSDLIPAPPLSKVPLQQNFQDNQFHGKWYVVGLAGNRILRDDQHPMPMYATIYELKGDKSYNVTSVISSHKKCLYPIATFVPGSQPGEFTLGNIKSYGDKWSYLVRVVSTDYNQYAVVFFKHADSNYESFSITIYGRTKELASELKENFIRFSKSLGLPENHIVFPVPIDQCIDG
notes: Screening construct in crude E. coli lysate, with T7 tag, mutein and Strep-tag II
B2: SEQ ID NO 15 (designed binder)
chain: B1 chain with D55S, P61R, P90T, S139T
notes: as for B1
B3: SEQ ID NO 13 (designed binder)
chain: B1 chain with D55Q, P61L, W115V, S139T
notes: as for B1
B4: SEQ ID NO 17 (designed binder)
chain: B1 chain with D55L, K109R, W115T, S139T
notes: as for B1
B5: SEQ ID NO 16 (designed binder)
chain: B1 chain with D55S, P90S, W115E, H136Y, D138S, S139D, Y141D
notes: as for B1
B6: hNGALM4 (designed binder)
chain: QDSTSDLIPAPPLSKVPLQQNFQDNQFHGKWYVVGLAGNRILRDDQHPMPMYATIYELKGDKSYNVTSVISSHKKCLYPIATFVPGSQPGEFTLGNIKSYGDKWSYLVRVVSTDYNQYAVVFFKHADSNYESFSITIYGRTKELASELKENFIRFSKSLGLPENHIVFPVPIDQCIDG
B7: hNGALM3 (designed binder)
chain: QDSTSDLIPAPPLSKVPLQQNFQDNQFHGKWYVVGLAGNRILRQDQHPMLMYATIYELKGDKSYNVTSVISSHKKCLYPIATFVPGSQPGEFTLGNIKSYGDKVSYLVRVVSTDYNQYAVVFFKHADTNYESFSITIYGRTKELASELKENFIRFSKSLGLPENHIVFPVPIDQCIDGSAWSHPQFEK
B8: hNGALM7 (designed binder)
chain: B7 chain with Q44L, L50P, K98R, V104T
B9: hNGALM2 (designed binder)
chain: B7 chain with I41L, Q44D, L50D, V104W
B10: hNGALM5 (designed binder)
chain: B7 chain with Q44S, L50R, P79T, V104W
B11: hNGALM6 (designed binder)
chain: B7 chain with Q44S, L50P, P79S, V104E, H125Y, D127S, T128D, Y130D

What follows are molecules tested against T1, human CTLA-4 on transfected CHO-K1 cells (assay: competition FACS on human CTLA4-transfected CHO-K1 cells; blocked ligand: biotinylated human B7.1 at 10 nM, detected with streptavidin-phycoerythrin).

Row | IC50 (read off the curve) | Molecule
1 | 3000 pM | BNI3 (antibody)

These molecules were tested against T2, human CTLA-4-Fc (Chimerigen) (assay: screening ELISA of crude lysates: mutein captured by T7 mAb, limited soluble human CTLA4-Fc; in some cases competition ELISA with mAb BNI3).
Experimental: Therein, NGAL variants equipped with a T7 detection tag (Novagen) as well as a Strep-tag II affinity tag (IBA) were soluble expressed in a 96 well microtiter plate using the E. coli strain TG1/F with phNGAL37 SEQ ID NO: 10. This vector corresponds to phNGAL15 SEQ ID NO: 11 as described in the following example 4 with an N-terminal T7 tag consisting of 11 amino acids ([…]). Lipocalin mutein expression was induced overnight at 22° C. at 700 rpm with anhydrotetracycline (0.2 μg/ml) at an OD₅₅₀ of 0.6. Afterwards, cells were lysed (100 mM Na-borate, pH 8.0, 80 mM NaCl, 1 mM EDTA, 0.025% w/v lysozyme) for 1 h under agitation. To minimize non-specific binding in the subsequent ELISA screen, the crude cell lysates were supplemented with 2% w/v BSA and 0.1% v/v Tween 20 and tested in ELISA for binding to human CTLA-4-Fc (Chimerigen).
In a reverse ELISA approach soluble expressed muteins from the crude cell lysate were captured via immobilized T7 mAb (5 μg/ml, Novagen) on wells of black Fluotrac 600 ELISA plates (Greiner; 384 well). Neutravidin, 5 μg/ml, and 3% milk were used as negative control. […] Subsequently plates were washed five times and bound target was detected via an goat anti-human Fc monoclonal antibody-HRP conjugate (Jackson ImmunoResearch), diluted 1:5.000 in PBST/0.1. Therefore, QuantaBlu™ (Pierce; 1:2 diluted in PBS/T 0.1%) was used as fluorogenic HRP substrate. After 45 min of signal development at room temperature fluorescence was excited at a wavelength of 320 nm (±12.5 nm) and measured at 430 nm (±17.5 nm) in a GENiosPlus plate reader (Tecan).
In some cases a competition ELISA was carried out where CTLA4-Fc (2.5 μg/ml) was captured in ELISA plates via an immobilized mouse anti-human IgG Fc Gamma fragment-specific antibody (Jackson ImmunoResearch (5 μg/ml) and incubated for 1 h with a pre-mixture of the mutein extracts and different concentrations of a competitive CTLA4-specific mAb BNI3 (BD Bioscience) at concentrations of 30, 100, and 200 nM, respectively.

Row | binding result | Molecule
2 | binds | B1
3 | binds | B2
4 | binds | B3
5 | binds | B4
6 | binds | B5

What follows are molecules tested against T1, human CTLA-4 on transfected CHO-K1 cells (assay: competition FACS on human CTLA4-transfected CHO-K1 cells; competitor biotinylated human B7.1 at 10 nM).
Experimental: Different concentrations of the Lcn2 muteins or, as a positive control, of the antibody BNI3 (BD Bioscience) were mixed with recombinant biotinylated human B7.1 (Ancell) at 10 nM final concentration and added to 100 000 of the CTLA-4 transfected CHO-K1 cells which were generated according to the description in example 16 of PCT/EP 2005/012640. Samples were incubated at 4° C. for 2 h, washed twice in PBS containing 2% w/v BSA, and detection of bound B7.1 was accomplished by incubation with streptavidin-phycoerythrin for 30 min at 4° C. Mean fluorescence intensities were determined by flow cytometry and fitted to a sigmoidal dose response model using Prism (GraphPad) as depicted in FIG. 4 to determine EC50 values for Lcn2 muteins from sequences of SEQ ID NO: 12 to SEQ ID NO: 17 which are summarized in Table 3.

Row | EC50 | Molecule
7 | 9500 pM | B6
8 | 7600 pM | B7
9 | 11000 pM | B8
10 | 6000 pM | B9
11 | 9000 pM | B10
12 | 10300 pM | B11

The molecules below were run against T2, human CTLA-4-Fc (Chimerigen) (assay: SPR, Biacore T100, 25 C; CTLA4-Fc captured on anti-human IgG-Fc, mutein as analyte; 1:1 Langmuir fit).
Experimental: (§1) Real time affinity analysis was performed at 25° C. using a Biacore T100 system (GE Healthcare). Anti-human IgG-Fc antibody (Jackson ImmounoResearch Laboratories) was immobilized on a CM5 sensor chip using standard amine coupling chemistry, resulting in a ligand density of 8000 resonance units (RU). […] Subsequently, the Lcn2 muteins (SEQ ID: No 12 to SEQ ID NO: 17) were applied in an appropriate dilution series in HBS-EP at a flow rate of 30 μl/min. Regeneration of the derivatized chip surface was achieved by a combination of first basic (2.5 mM NaOH) and then acidic (10 mM glycine, pH 1.5) buffer, each for 8 and 16 s, respectively. […] To correct for buffer effects and baseline drift, double referencing was used throughout. Kinetic data evaluation was performed using the Biacore T100 Evaluation Software (v. 2.0.1) using the Langmuir 1:1 binding model and global fitting.

Row | Kd | koff | kon | Molecule
13 | 346 pM | 0.000186 s⁻¹ | 539000 M⁻¹ s⁻¹ | B6
14 | 460 pM | 0.000194 s⁻¹ | 422000 M⁻¹ s⁻¹ | B7
15 | 659 pM | 0.000517 s⁻¹ | 784000 M⁻¹ s⁻¹ | B8
16 | 686 pM | 0.000388 s⁻¹ | 565000 M⁻¹ s⁻¹ | B9
17 | 740 pM | 0.000281 s⁻¹ | 380000 M⁻¹ s⁻¹ | B10
18 | 588 pM | 0.000197 s⁻¹ | 335000 M⁻¹ s⁻¹ | B11

These molecules were tested against T3, murine CTLA4-Fc (R&D Systems) (mouse, UniProt P09793 36-162, limits assumed) in the same assay as above.
T3 construct: Bought fusion protein; also called mouse CTLA4; not shown: It was captured by an anti-human IgG-Fc antibody
Experimental: as §1

Row | Kd | koff | kon | Molecule
19 | 584 pM | 0.000129 s⁻¹ | 221000 M⁻¹ s⁻¹ | B6
20 | 672 pM | 0.000134 s⁻¹ | 199000 M⁻¹ s⁻¹ | B7
21 | 413 pM | 0.000108 s⁻¹ | 261000 M⁻¹ s⁻¹ | B8
22 | 3050 pM | 0.000907 s⁻¹ | 298000 M⁻¹ s⁻¹ | B9
23 | 320 pM | 0.000261 s⁻¹ | 813000 M⁻¹ s⁻¹ | B10
24 | 66100 pM | 4.21 s⁻¹ | 6.36e+07 M⁻¹ s⁻¹ | B11

Source: US20140051645A1 (Pieris, published 2014)
